The source of these data is patent publication US20200095569A1.

For experiment [1], the target named is NLS-iLID-iLID-GFP-ferritin (Gallus gallus; human) (UniProt P02794). Kind of experiment: cell-based or functional assay.
Experiment [2] concerns the target NLS-iLID-GFP-ferritin (Gallus gallus; human) (UniProt P02794). Kind of experiment: cell-based or functional assay.

On to “FUS(1-214)-mCherry-sspB (from UniProt P0AFZ3 6-116)”, for which the mCherry fluorescence at core based droplets after light activation (live cell confocal imaging) in experiment [1] was found to be 15 s. For the same substance, the mean mCherry intensity in locally activated droplets relative to nucleoplasm in experiment [2] is 100 fold.
